“And” between values parts separate entries of the source, which are not always exact repeats. Equal values may be shown once. Values belong to the binder of their own block, whether it stands above or below them.
Assays:
human IL-23 [1] = biological target: T1, human IL-23 (human, UniProt P29460 23-328); test: BIAcore (SPR), antibody amine-coupled to CM5 chip, IL-23 as analyte; second replicate determination
T1 construct: also called hIL-23
T1 sequence 1: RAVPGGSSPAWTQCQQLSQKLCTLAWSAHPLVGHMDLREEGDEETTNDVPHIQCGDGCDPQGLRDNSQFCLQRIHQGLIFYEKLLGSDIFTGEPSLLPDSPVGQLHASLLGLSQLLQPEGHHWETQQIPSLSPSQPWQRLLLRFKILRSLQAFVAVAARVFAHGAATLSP
T1 sequence 2: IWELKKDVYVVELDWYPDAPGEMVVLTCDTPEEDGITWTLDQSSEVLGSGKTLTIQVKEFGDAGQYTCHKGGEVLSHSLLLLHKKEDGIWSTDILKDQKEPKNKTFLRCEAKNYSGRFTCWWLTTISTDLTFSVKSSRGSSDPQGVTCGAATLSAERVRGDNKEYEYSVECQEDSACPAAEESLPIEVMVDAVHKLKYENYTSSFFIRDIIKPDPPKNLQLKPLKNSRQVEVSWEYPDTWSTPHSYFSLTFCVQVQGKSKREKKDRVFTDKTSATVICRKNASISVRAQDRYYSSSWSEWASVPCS
Method: (§1) BIAcore determinations are performed essentially as described at Example 4 of commonly assigned U.S. Patent Application Publication No. 2007/0048315. Briefly, ligands (anti-IL-23 mAbs) are immobilized on a BlAcore CM5 sensor chip using standard amine-coupling procedure. IL-23 is diluted in PBS to produce various concentrations. Kinetic constants for the various interactions are determined using BIAevaluation software 3.1. The Kd is determined using the calculated dissociation and association rate constants.
Table 4 provides the Kd values as determined by BlAcore, including replicate determinations.

human IL-23 [2] = biological target: T1, human IL-23; test: cell-based or functional assay
human IL-23 [3] = biological target: T1, human IL-23; test: BIAcore (SPR), antibody amine-coupled to CM5 chip, IL-23 as analyte; first replicate determination
Method: as §1

human IL-23 [4] = biological target: T1, human IL-23; test: cell-based or functional assay; remark: listed apart in the source
human IL-23 [5] = biological target: T1, human IL-23; test: cell-based or functional assay; remark: listed apart in the source
human IL-23 [6] = biological target: T1, human IL-23; test: BIAcore (SPR), antibody amine-coupled to CM5 chip, IL-23 as analyte
Method: as §1

human IL-23 [7] = biological target: T1, human IL-23; test: BIAcore (SPR), essentially as in Example 4
Method: as §1

[8] = biological target: T2, non-linked (native) human IL-23 comprising two disulfide-linked chains, human p19 and human p40 (human, UniProt P29460 23-328); test: KinExA, antibody pre-incubated with native human IL-23 in solution; second replicate determination
T2 sequence 1: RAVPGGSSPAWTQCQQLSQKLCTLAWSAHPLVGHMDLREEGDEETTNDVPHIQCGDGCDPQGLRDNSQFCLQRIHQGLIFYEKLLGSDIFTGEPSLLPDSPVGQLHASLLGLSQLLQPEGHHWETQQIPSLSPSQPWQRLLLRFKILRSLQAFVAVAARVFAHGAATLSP
T2 sequence 2: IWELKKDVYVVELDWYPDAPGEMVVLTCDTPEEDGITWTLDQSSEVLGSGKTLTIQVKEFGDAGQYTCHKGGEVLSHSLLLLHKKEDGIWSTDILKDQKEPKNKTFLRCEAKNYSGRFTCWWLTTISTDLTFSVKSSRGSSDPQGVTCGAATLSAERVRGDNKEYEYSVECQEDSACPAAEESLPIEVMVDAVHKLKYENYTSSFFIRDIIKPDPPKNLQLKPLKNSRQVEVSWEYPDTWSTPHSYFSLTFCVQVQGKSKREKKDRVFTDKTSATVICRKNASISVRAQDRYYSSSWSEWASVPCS
Method: (§2) The equilibrium dissociation constant (Kd) for anti human IL-23 antibodies is determined using the KinExA 3000 instrument. Sapidyne Instruments Inc., Boise Id., USA. KinExA uses the principle of the Kinetic Exclusion Assay method based on measuring the concentration of uncomplexed antibody in a mixture of antibody, antigen and antibody-antigen complex. The concentration of free antibody is measured by exposing the mixture to a solid-phase immobilized antigen for a very brief period of time. In practice, this is accomplished by flowing the solution phase antigen-antibody mixture past antigen-coated particles trapped in a flow cell. Data generated by the instrument are analyzed using custom software. Equilibrium constants are calculated using a mathematical theory based on the following assumptions: […]
(§3) Binding of anti-IL-23p19 antibodies is assessed in a competition binding assay, in which antibodies are pre-incubated with non-linked (native) human IL-23 comprising two disulfide-linked chains, human p19 (SEQ ID NO: 47) and human p40 (GenBank Accession No. P29460), at a series of concentrations. […] The amount of antibody captured by the PMMA particles is then detected using a fluorescently labeled secondary antibody.

human IL-23 [9] = biological target: T1, human IL-23; test: BIAcore (SPR), antibody amine-coupled to CM5 chip, IL-23 as analyte; third determination, lower end of range 81-129
Method: as §1

human IL-23 [10] = biological target: T1, human IL-23; test: BIAcore (SPR), antibody amine-coupled to CM5 chip, IL-23 as analyte; second determination, upper end of range 68-100
Method: as §1

human IL-23 [11] = biological target: T1, human IL-23; test: BIAcore (SPR), antibody amine-coupled to CM5 chip, IL-23 as analyte; first determination, upper end of range 72-104
Method: as §1

[12] = biological target: T2, non-linked (native) human IL-23 …; test: KinExA, antibody pre-incubated with native human IL-23 in solution; fourth replicate determination
Method: as §2, §3

human IL-23 [13] = biological target: T1, human IL-23; test: BIAcore (SPR), antibody amine-coupled to CM5 chip, IL-23 as analyte; first determination, lower end of range 72-104
Method: as §1

human IL-23 [14] = biological target: T1, human IL-23; test: BIAcore (SPR), antibody amine-coupled to CM5 chip, IL-23 as analyte; third determination, upper end of range 81-129
Method: as §1

[15] = biological target: T2, non-linked (native) human IL-23 …; test: KinExA, antibody pre-incubated with native human IL-23 in solution; first replicate determination (64 ± 40)
Method: as §2, §3

[16] = biological target: T2, non-linked (native) human IL-23 …; test: KinExA, antibody pre-incubated with native human IL-23 in solution; third replicate determination
Method: as §2, §3

human IL-23 [17] = biological target: T1, human IL-23; test: BIAcore (SPR), antibody amine-coupled to CM5 chip, IL-23 as analyte; second determination, lower end of range 68-100
Method: as §1

B2: humanized anti-IL-23p19 antibody 13B8-b (antibody, human IgG1, kappa, V domains shown)
VH: QVQLVQSGAEVKKPGASVKVSCKASGYIFITYWMTWVRQAPGQGLEWMGQIFPASGSADYNEKFEGRVTMTTDTSTSTAYMELRSLRSDDTAVYYCARGGGGFAYWGQGTLVTVSS
VL: DIQMTQSPSSLSASVGDRVTITCRTSENIYSYLAWYQQKPGKAPKLLIYNAKTLAEGVPSRFSGSGSGTDFTLTISSLQPEDFATYYCQHHYGIPFTFGQGTKVEIKR
notes: also called hum13B8-b; Hum 13B8-b
- IC50 in the Ba/F3 proliferation assay (340 pM IL-23) (human IL-23 [5]): 187 pM
- IC50 in the KIT225 STAT-3 phosphorylation assay (138 pM human IL-23) (human IL-23 [5]): 130 pM
- IC50 in the human splenocyte assay (IFN-γ production, 170 pM human IL-23) (human IL-23 [5]): 59 to 144 pM
- Kd (human IL-23 [6]): 0.077 nM and 0.129 nM and 0.069 nM and 0.116 nM
- Splenocyte assay IC50 (IL-17 production by mouse splenocytes) (human IL-23 [2]): 0.11 nM and 0.221 nM
- Kd (human IL-23 [7]): 0.297 nM
- IC50 for blocking of Ba/F3 cell proliferation (human IL-23 [4]): 1.2 nM and 1.1 nM

B4: humanized anti-IL-23p19 antibody 13B8-a (antibody, human IgG1, kappa, V domains shown)
VH: QVQLVQSGAEVKKPGASVKVSCKASGYIFITYWMTWVRQAPGQGLEWMGQIFPASGSADYNEMFEGRVTMTTDTSTSTAYMELRSLRSDDTAVYYCARGGGGFAYWGQGTLVTVSS
VL: DIQMTQSPSSLSASVGDRVTITCRTSENIYSYLAWYQQKPGKAPKLLIYNAKTLAEGVPSRFSGSGSGTDFTLTISSLQPEDFATYYCQHHYGIPFTFGQGTKVEIKR
notes: also called hum13B8-a; h13B8-a
- Kd [8]: 0.11 nM
- Kd (human IL-23 [9]): ≥ 0.081 nM
- Kd (human IL-23 [10]): ≤ 0.1 nM
- Kd (human IL-23 [11]): ≤ 0.104 nM
- Kd [12]: 0.447 nM
- Kd (human IL-23 [13]): ≥ 0.072 nM
- Kd (human IL-23 [14]): ≤ 0.129 nM
- Kd [15]: 0.064 nM
- Kd [16]: 0.365 nM
- Kd (human IL-23 [17]): ≥ 0.068 nM
- IC50 for blocking of Ba/F3 cell proliferation (human IL-23 [4]): 1.1 nM

Results, then the binder that gave them:

- Kd (human IL-23 [1]): 0.228 nM
- Splenocyte assay IC50 (IL-17 production by mouse splenocytes) (human IL-23 [2]): 0.064 nM and 0.028 nM and 0.054 nM
- Kd (human IL-23 [3]): 0.173 nM
- IC50 for blocking of Ba/F3 cell proliferation (human IL-23 [4]): 0.7 nM
B1: murine antibody 13B8 (mouse IgG1/kappa) (antibody, V domains shown)
VH: HVQLQQSGPELVRPGASVELSCKASGYIFITYWMTWMKQRPGQGLEWIGQIFPASGSADYNEMFEGKATLTVDTSSNTAYMQLSSLTSEDSAVYFCARGGGGFAYWGQGTLVTVSA
VL: DIQMTQSPASLSASVGETVTITCRTSENIYSYLAWYQQKQGKSPQLLVYNAKTLAEGVPSRFSGSGSGTQFSLKINRLQPEDFGRYFCQHHYGIPFTFGSGTKLEIKR
notes: also called m13B8; mouse 13B8

- Kd (human IL-23 [6]): 0.092 to 0.153 nM
- Splenocyte assay IC50 (IL-17 production by mouse splenocytes) (human IL-23 [2]): 0.515 nM
- IC50 for blocking of Ba/F3 cell proliferation (human IL-23 [4]): 1.1 nM and 2.2 nM
B3: humanized anti-IL-23p19 antibody 13B8-c (antibody, human IgG1, kappa, V domains shown)
VH: QVQLVQSGAEVKKPGASVKVSCKASGYIFITYWMTWVRQAPGQGLEWMGQIFPASGSADYAQKLQGRVTMTTDTSTSTAYMELRSLRSDDTAVYYCARGGGGFAYWGQGTLVTVSS
VL: DIQMTQSPSSLSASVGDRVTITCRTSENIYSYLAWYQQKPGKAPKLLIYNAKTLAEGVPSRFSGSGSGTDFTLTISSLQPEDFATYYCQHHYGIPFTFGQGTKVEIKR
notes: also called hum13B8-c; h13B8-c
